In article PMC10276003, “Regulation of microRNA expression by the adaptor protein GRB2” (Scientific Reports, 2023):

Assays:
Conditions in all cases: both partners purified
His-tagged GRB2 [1] = biological target: T1, His-tagged GRB2 (UniProt P62993 1-217); test: ITC; 500 uM MBP-tagged AGO2 domain titrated into 20 uM His-tagged GRB2; 25 C; 20 mM Tris-HCl pH 8, 150 mM NaCl, 10% glycerol, 1 mM beta-mercaptoethanol; one-site model with n fixed at 1
T1 construct: For the MST with DICER1^CT and AGO2 the text writes only GRB2; also called His-GRB2
T1 sequence (P62993 whole entry, the tested form may be a part): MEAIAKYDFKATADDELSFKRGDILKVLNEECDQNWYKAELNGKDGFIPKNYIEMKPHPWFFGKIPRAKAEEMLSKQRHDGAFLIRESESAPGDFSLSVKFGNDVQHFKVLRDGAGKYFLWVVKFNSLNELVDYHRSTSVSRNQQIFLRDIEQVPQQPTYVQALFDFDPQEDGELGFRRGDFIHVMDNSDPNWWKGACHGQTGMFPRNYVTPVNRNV

His-tagged GRB2 [2] = biological target: T1, His-tagged GRB2; test: ITC; 1.2 mM peptide titrated into 80 uM His-tagged GRB2; 25 C; 20 mM Tris-HCl pH 8, 150 mM NaCl, 1 mM beta-mercaptoethanol
[3] = biological target: T2, AGO2 (purified as GST-AGO2, GST cleaved) (human, UniProt Q9UKV8 1-859, labelled with Atto 488 NHS ester); test: MST; 2.29 to 75,000 nM unlabelled DICER1^CT with 100 nM Atto 488-labelled AGO2, no GRB2; 20 mM HEPES, 150 mM NaCl, 1 mM TCEP pH 7.5
T2 construct: Argonaute 2 (AGO2), human; source: E. coli BL21(DE3), purified (RNase, glutathione superflow resin, Superdex 75; GST cleaved with thrombin)
T2 sequence (Q9UKV8 whole entry): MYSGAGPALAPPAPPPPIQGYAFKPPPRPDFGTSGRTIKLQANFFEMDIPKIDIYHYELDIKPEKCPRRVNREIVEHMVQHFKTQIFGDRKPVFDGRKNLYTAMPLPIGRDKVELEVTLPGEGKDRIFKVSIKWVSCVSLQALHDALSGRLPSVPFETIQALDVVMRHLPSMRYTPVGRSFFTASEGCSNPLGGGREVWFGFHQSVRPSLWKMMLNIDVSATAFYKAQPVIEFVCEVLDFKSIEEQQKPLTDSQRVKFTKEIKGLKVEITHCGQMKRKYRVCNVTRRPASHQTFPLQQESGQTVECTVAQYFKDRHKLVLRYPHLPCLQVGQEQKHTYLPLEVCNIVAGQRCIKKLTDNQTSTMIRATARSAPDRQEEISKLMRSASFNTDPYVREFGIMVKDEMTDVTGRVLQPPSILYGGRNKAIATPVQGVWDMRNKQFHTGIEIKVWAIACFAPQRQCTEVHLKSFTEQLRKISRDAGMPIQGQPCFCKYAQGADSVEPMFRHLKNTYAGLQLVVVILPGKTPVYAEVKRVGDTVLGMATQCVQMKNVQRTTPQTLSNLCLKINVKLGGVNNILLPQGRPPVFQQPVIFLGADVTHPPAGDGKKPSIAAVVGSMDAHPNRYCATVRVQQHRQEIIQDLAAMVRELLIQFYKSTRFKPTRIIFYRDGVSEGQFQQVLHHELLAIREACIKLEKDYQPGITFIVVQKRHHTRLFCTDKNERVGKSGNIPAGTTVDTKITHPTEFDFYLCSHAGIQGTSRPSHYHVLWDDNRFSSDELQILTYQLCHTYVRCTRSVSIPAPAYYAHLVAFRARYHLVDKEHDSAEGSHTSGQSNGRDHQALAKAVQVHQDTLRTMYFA

[4] = biological target: T3, AGO2 pre-incubated with GRB2 (GRB2-AGO2 complex) (human | , UniProt Q9UKV8 1-859; P62993 1-217, labelled with Atto 488 NHS ester); test: MST; 2.29 to 75,000 nM unlabelled DICER1^CT with 100 nM Atto 488-labelled AGO2 pre-incubated with 25 uM GRB2; 20 mM HEPES, 150 mM NaCl, 1 mM TCEP pH 7.5
T3 construct: Argonaute 2 (AGO2), human; as m20; as m12; The complex was not isolated: labelled AGO2 (100 nM) stood with an excess of GRB2; source: E. coli BL21(DE3), both purified; AGO2 incubated with 25 or 50 uM GRB2 before the MST
T3 sequence (Q9UKV8 whole entry, chain 1 of 2): as the sequence (Q9UKV8 whole entry) above
T3 sequence (P62993 whole entry, chain 2 of 2): as the sequence (P62993 whole entry, the tested form may be a part) above

[5] = biological target: T3, AGO2 pre-incubated with GRB2 (GRB2-AGO2 …); test: MST; 2.29 to 75,000 nM unlabelled DICER1^CT with 100 nM Atto 488-labelled AGO2 pre-incubated with 50 uM GRB2; 20 mM HEPES, 150 mM NaCl, 1 mM TCEP pH 7.5

B1: MBP-tagged AGO2 PAZ domain (residues 235-348) (domain or fragment)
chain: not shown
notes: Argonaute 2 (AGO2), human, PAZ domain, residues 235-348, in pMAL-c5x; The methods say that RNA was left in the PAZ preparation; also called MBP-PAZ; PAZ WT; source: E. coli BL21(DE3), purified (MBPTrap HP, SEC); not shown: MBP, N-terminal, kept
- Kd (His-tagged GRB2 [1]): 0.585 ± 0.061 µM
- stoichiometry N (His-tagged GRB2 [1]): 1

B2: PRM-containing peptide from the AGO2 PAZ domain (residues 317-333) (peptide)
peptide: KLVLRYPHLPCLQVGQE
notes: Argonaute 2 (AGO2), human, PAZ domain, residues 317-333; also called peptide spanning the proline-rich motif 323PHLP326
- Kd (His-tagged GRB2 [2]): 4.27 ± 1.17 µM

B3: C-terminal domain of DICER1 (DICER1^CT, residues 1276-1922) (domain or fragment, UniProt Q9UPY3 1276-1922, looked up)
chain: DSEQSPSIGYSSRTLGPNPGLILQALTLSNASDGFNLERLEMLGDSFLKHAITTYLFCTYPDAHEGRLSYMRSKKVSNCNLYRLGKKKGLPSRMVVSIFDPPVNWLPPGYVVNQDKSNTDKWEKDEMTKDCMLANGKLDEDYEEEDEEEESLMWRAPKEEADYEDDFLEYDQEHIRFIDNMLMGSGAFVKKISLSPFSTTDSAYEWKMPKKSSLGSMPFSSDFEDFDYSSWDAMCYLDPSKAVEEDDFVVGFWNPSEENCGVDTGKQSISYDLHTEQCIADKSIADCVEALLGCYLTSCGERAAQLFLCSLGLKVLPVIKRTDREKALCPTRENFNSQQKNLSVSCAAASVASSRSSVLKDSEYGCLKIPPRCMFDHPDADKTLNHLISGFENFEKKINYRFKNKAYLLQAFTHASYHYNTITDCYQRLEFLGDAILDYLITKHLYEDPRQHSPGVLTDLRSALVNNTIFASLAVKYDYHKYFKAVSPELFHVIDDFVQFQLEKNEMQGMDSELRRSEEDEEKEEDIEVPKAMGDIFESLAGAIYMDSGMSLETVWQVYYPMMRPLIEKFSANVPRSPVRELLEMEPETAKFSPAERTYDGKVRVTVEVVGKGKFKGVGRSYRIAKSAAARRALRSLKANQPQVPNS
modifications: labelled with Atto 488 NHS ester in the MST with GRB2; unlabelled in the MST with AGO2
notes: DICER1, residues 1276-1922, with the RNase III domains; also called DICER1 C-terminal region
- Kd [3]: 17.6 ± 1.7 µM
- Kd [4]: 7.9 ± 1.3 µM
- Kd [5]: 4.6 ± 0.6 µM
